Measured values as given in US20180236024A1 (STC UNM, published 2018).

B1: GFP-TRIM20 (full-length human TRIM20) (other)
chain: MAKTPSDHLLSTLEELVPYDFEKFKFKLQNTSVQKEHSRIPRSQIQRARPVKMATLLVTYYGEEYAVQLTLQVLRAINQRLLAEELHRAAIQEYSTQENGTDDSAASSSLGENKPRSLKTPDHPEGNEGNGPRPYGGGAASLRCSQPEAGRGLSRKPLSKRREKASEGLDAQGKPRTRSPALPGGRSPGPCRALEGGQAEVRLRRNASSAGRLQGLAGGAPGQKECRPFEVYLPSGKMRPRSLEVTISTGEKAPANPEILLTLEEKTAANLDSATEPRARPTPDGGASADLKEGPGNPEHSVTGRPPDTAASPRCHAQEGDPVDGTCVRDSCSFPEAVSGHPQASGSRSPGCPRCQDSHERKSPGSLSPQPLPQCKRHLKQVQLLFCEDHDEPICLICSLSQEHQGHRVRPIEEVALEHKKKIQKQLEHLKKLRKSGEEQRSYGEEKAVSFLKQTEALKQRVQRKLEQVYYFLEQQEHFFVASLEDVGQMVGQIRKAYDTRVSQDIALLDALIGELEAKECQSEWELLQDIGDILHRAKTVPVPEKWTTPQEIKQKIQLLHQKSEFVEKSTKYFSETLRSEMEMFNVPELIGAQAHAVNVILDAETAYPNLIFSDDLKSVRLGNKWERLPDGPQRFDSCIIVLGSPSFLSGRRYWEVEVGDKTAWILGACKTSISRKGNMTLSPENGYWVVIMMKENEYQASSVPPTRLLIKEPPKRVGIFVDYRVGSISFYNVTARSHIYTFASCSFSGPLQPIFSPGTRDGGKNTAPLTICPVGGQGPD
notes: also called T20; wild type TRIM20; not shown: GFP tag
B2: GST-GABARAP (other)
chain: MKFVYKEEHPFEKRRSEGEKIRKKYPDRVPVIVEKAPKARIGDLDKKKYLVPSDLTVGQFYFLIRKRIHLRAEDALFFFVNNVIPPTSATMGQLYQEHHEEDFFLYIAYSDESVYGL
notes: GST fusion made in E. coli; not shown: GST tag

What was measured:
[1] = target: T1, NLRP3 (UniProt Q96P20 1-1036); experiment: co-IP of GFP-TRIM20 variants with NLRP3, HEK293 cells
T1 construct: also called Flag-NLRP3; endogenous NLRP3

[2] = target: T2, radiolabeled Myc-TRIM20 (human, UniProt O15553 1-781, [35S] L-methionine label); experiment: GST pull-down of radiolabeled Myc-TRIM20
T2 construct: In vitro translated for GST pull-down; the peptide array of TRIM20 peptides is also written under this molecule; not shown: Myc tag
T2 sequence: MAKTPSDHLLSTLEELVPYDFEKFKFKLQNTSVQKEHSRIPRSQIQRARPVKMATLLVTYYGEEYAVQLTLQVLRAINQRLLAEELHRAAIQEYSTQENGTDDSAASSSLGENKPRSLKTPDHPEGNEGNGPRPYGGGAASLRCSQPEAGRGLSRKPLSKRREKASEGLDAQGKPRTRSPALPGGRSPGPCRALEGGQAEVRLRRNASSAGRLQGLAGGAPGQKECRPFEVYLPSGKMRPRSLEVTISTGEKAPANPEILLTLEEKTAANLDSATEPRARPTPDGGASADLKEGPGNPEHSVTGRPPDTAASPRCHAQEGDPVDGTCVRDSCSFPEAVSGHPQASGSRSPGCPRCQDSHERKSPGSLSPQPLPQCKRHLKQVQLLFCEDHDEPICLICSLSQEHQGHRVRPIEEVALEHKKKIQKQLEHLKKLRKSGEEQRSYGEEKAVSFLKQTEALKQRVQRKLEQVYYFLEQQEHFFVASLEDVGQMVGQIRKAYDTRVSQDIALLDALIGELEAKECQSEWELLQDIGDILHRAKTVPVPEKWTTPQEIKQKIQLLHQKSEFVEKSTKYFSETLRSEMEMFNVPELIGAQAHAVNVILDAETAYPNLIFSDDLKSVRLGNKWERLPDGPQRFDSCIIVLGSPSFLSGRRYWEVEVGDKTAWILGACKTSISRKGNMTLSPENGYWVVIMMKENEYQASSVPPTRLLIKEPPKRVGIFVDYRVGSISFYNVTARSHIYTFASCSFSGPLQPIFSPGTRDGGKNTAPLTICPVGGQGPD

T1 sequence (Q96P20 whole entry): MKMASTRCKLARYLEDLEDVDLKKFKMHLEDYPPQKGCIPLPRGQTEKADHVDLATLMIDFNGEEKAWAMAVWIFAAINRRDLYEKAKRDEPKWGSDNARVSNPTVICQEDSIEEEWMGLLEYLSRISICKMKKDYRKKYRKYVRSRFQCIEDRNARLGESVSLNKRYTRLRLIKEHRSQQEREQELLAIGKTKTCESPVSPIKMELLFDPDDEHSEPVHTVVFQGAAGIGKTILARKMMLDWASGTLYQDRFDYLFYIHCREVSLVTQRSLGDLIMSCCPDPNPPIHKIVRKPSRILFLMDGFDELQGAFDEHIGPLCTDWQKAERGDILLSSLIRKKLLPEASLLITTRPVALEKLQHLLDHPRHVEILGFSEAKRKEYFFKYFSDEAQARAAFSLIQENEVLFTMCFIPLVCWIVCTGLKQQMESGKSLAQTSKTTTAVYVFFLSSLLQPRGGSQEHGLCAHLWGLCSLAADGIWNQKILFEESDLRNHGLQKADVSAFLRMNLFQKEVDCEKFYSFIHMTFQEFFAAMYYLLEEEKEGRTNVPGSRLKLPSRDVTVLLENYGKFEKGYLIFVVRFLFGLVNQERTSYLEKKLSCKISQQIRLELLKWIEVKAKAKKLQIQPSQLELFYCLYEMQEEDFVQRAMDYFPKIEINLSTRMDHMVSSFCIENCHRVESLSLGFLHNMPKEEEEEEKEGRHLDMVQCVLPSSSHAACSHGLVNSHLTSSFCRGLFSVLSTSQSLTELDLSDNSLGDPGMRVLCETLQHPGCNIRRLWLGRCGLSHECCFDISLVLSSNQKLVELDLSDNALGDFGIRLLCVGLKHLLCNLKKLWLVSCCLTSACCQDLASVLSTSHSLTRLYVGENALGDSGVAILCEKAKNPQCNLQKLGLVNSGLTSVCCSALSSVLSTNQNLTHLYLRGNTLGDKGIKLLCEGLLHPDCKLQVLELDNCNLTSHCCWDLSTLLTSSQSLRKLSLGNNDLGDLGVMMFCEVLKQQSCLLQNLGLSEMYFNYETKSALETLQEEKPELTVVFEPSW

| Binder | binding result [1] | binding result [2] |
| --- | --- | --- |
| B1 | binds | – |
| B2 | – | binds |
